The source of these data is patent publication US20250129136A1.

The target in assay [1] is hPBMC. The assay can be described thus: flow cytometry, percent of stained hPBMC against the concentration of Alexa647-labeled hDsg3-hFc. (In general: Flow cytometry measures light scatter and fluorescence of single cells or particles in a stream.)
Assay [2] addresses Fcγ receptor of mouse macrophages (RAW264.7 cells) (mouse). The assay can be described thus: flow cytometry dot plot of RAW264.7 macrophage cells, 10 nM mDsg3-IgG2a-Alexa647; the same quadrant at 0 nM prints 1.28.
For assay [3], the target named is AK23 antibody (anti-mouse Dsg3, from AK23 hybridoma). The assay can be described thus: cell-based or functional assay.
Assay [4] deals with PVB28 patient-derived anti-Dsg3 antibody on Nalm-6 cells. The experiment in a line: cell-based or functional assay.
The target in assay [5] is F779 patient-derived anti-Dsg3 antibody on Nalm-6 cells. The experiment in a line: cell-based or functional assay.
Assay [6] shares this target. The assay can be described thus: flow cytometry on F779 cells, titration of Alexa647-labeled protein.
Assay [7] deals with Fcγ receptor of mouse macrophages (RAW264.7 cells) (mouse). The assay can be described thus: flow cytometry on Raw macrophage cells, titration of labeled protein.
The target of assay [8] is F779 patient-derived anti-Dsg3 antibody on Nalm-6 cells. The experiment in a line: flow cytometry, F779 cells incubated with varying concentrations of mDsg3-mFc (IgG2a), percent of stained F779 cells [top].

For the molecule hDsg3(EC13)-hFc (Fc fusion), the EC50 – broadly, the concentration that produces a half-maximal response – in assay [1] is 1.7 nM. That is a single-digit nanomolar value.

B1: mDsg3(EC13)-mFc (Fc fusion)
chain: EWVKFAKPCREREDNSRRNPIAKITSDFQKNQKITYRISGVGIDQPPFGIFVVDPNNGDINITAIVDREETPSFLITCRALNALGQDVERPLILTVKILDVNDNPPIFSQTIFKGEIEENSASNSLVMILNATDADEPNHMNSKIAFKIVSQEPAGMSMFLISRNTGEVRTLTSSLDREQISSYHLVVSGADNDGTGLSTQCECSIKIKDVNDNFPVLRESQYSARIEENTLNAELLRFQVTDWDEEYTDNWLAVYFFTSGNEGNWFEIETDPRTNEGILKVVKALDYEQVQSMQFSIAVRNKAEFHQSVISQYRVQSTPVTIQVIDVREGISGGGGSGGSEPRGPTIKPCPPCKCPAPNLLGGPSVFIFPPKIKDVLMISLSPIVTCVVVDVSEDDPDVQISWFVNNVEVHTAQTQTHREDYNSTLRVVSALPIQHQDWMSGKEFKCKVNNKDLPAPIERTISKPKGSVRAPQVYVLPPPEEEMTKKQVTLTCMVTDFMPEDIYVEWTNNGKTELNYKNTEPVLDSDGSYFMYSKLRVEKKNWVERNSYSCSVVHEGLHNHHTTKSFSRTPGKGGGGSGGGGSDYKDDDDKLPETGGHHHHHH
modifications: Alexa Fluor 647 installed site-specifically at the C-terminus by sortase (Gly3-Alexa647 on the LPETG motif) for the flow cytometry stainings
For B1, the number in the Alexa647-positive upper right quadrant at 10 nM (percent of cells) in assay [2] is 98.6%. This molecule registered a killing of AK23 target cells co-cultured with RAW264.7 macrophages, 10 nM construct, 24 hours in assay [3] of 60%. Further, the killing of targeted cells with RAW264.7 macrophages at 10 and 100 nM construct in assay [4] is 90%. In assay [5], this molecule returned a killing of F779 target cells co-cultured with RAW264.7 macrophages, 10 nM construct, 24 hours of 65%; a killing of F779 target cells co-cultured with RAW264.7 macrophages, 10 nM construct, 48 hours of 94%; a killing of F779 target cells with RAW264.7 macrophages (Effector:Target 10:1), 1 nM construct, 24 hours of 60%; a killing of F779 target cells with RAW264.7 macrophages (Effector:Target 10:1), 1 nM construct, 48 hours of 80%. Besides, the killing of targeted cells with RAW264.7 macrophages at 10 and 100 nM construct in assay [5] stood at 90%. The molecule also had an EC50 in assay [6] of 2.3 nM. In addition, in assay [7], the EC50 is 2.3 nM. Further, the EC50 in assay [8] is 2.6 nM.
